Biological target: APP751sw (751 form of APP carrying the Swedish mutation), P05067
Sequence (P05067 whole entry, looked up, change not shown): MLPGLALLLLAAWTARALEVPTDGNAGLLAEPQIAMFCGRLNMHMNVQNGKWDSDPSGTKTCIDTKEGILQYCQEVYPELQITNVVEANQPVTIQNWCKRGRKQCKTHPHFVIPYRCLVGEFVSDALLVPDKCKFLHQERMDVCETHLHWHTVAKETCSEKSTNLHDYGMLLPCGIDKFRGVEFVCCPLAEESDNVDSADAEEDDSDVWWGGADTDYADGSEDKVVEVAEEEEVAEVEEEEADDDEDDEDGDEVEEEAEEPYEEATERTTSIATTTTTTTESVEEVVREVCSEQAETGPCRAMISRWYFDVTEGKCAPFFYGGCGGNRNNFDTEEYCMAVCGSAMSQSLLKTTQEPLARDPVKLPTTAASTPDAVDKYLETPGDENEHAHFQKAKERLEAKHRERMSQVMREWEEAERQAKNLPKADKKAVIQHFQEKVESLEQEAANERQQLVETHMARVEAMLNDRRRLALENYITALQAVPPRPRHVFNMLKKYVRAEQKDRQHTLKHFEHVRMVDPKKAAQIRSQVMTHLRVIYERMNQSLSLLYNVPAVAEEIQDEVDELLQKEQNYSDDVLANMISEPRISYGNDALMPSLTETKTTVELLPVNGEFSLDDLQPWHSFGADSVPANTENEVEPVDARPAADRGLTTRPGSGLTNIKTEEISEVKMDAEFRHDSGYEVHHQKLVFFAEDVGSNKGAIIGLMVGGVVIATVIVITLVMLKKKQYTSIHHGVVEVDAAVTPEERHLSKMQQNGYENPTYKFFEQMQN

B1: BACE2 D110A (protein)
chain: ALEPALASPAGAANFLAMVDNLQGDSGRGYYLEMLIGTPPQKLQILVATGSSNFAVAGTPHSYIDTYFDTERSSTYRSKGFDVTVKYTQGSWTGFVGEDLVTIPKGFNTSFLVNIATIFESENFFLPGIKWNGILGLAYATLAKPSSSLETFFDSLVTQANIPNVFSMQMCGAGLPVAGSGTNGGSLVLGGIEPSLYKGDIWYTPIKEEWYYQIEILKLEIGGQSLNLDCREYNADKAIVDSGTTLLRLPQKVFDAVVEAVARASLIPEFSDGFWTGSQLACWTNSETPWSYFPKISIYLRDENSSRSFRITILPQLYIQPMMGAGLNYECYRFGISPSTNALVIGATVMEGFYVIFDRAQKRVGFAASPCAEIAGAAVSEISGPFSTEDVASNCVPAQSLSEPILWIVSYALMSVCGAILLVLIVLLLLPFRCQRRPRDPEVVNDESSLVRHRWK
With B1 the “β-NTF formation, Q-HP Sepharose fractions of membrane extracts reconstituted with APP751sw for 2 hours at 37° C.” value was “extracts derived from BACE2 D110A transfected cells lost their ability to cleave at the β-secretase site in vitro”.

Reference: patent US6713276
